{
  "source": "patent US20240270853A1",
  "about": "(Chugai, published 2024)",
  "key": {"[1]": {"target": "T1, Recombinant mouse DDR2 ECD-Fc (R&D systems, Cat. No. 7479-DR-050) (mouse, UniProt Q62371 22-399, biotinylated)", "T1 construct": "Bought protein; not shown: Fc part of the bought fusion protein, not described", "T1 sequence": "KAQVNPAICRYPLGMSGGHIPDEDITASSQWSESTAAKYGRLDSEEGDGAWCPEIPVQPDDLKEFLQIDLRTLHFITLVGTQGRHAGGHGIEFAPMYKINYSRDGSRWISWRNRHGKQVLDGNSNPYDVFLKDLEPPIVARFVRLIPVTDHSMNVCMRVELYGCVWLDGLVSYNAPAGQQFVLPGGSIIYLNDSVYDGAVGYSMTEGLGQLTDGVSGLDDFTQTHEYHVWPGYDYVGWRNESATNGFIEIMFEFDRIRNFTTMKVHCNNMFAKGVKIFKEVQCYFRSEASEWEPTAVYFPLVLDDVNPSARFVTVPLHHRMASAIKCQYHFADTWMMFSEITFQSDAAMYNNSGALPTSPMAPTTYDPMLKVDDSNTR", "assay": "Octet tandem binning on captured mouse DDR2 ECD-Fc; competitor Ab1 (bound first) DAB0045", "protocol": "(§1) Competitive epitope binning experiment was performed by real-time binding assay using Octet (Pall ForteBio). Recombinant mouse DDR2 ECD-Fc (R&D systems, Cat. No. 7479-DR-050) was biotinylated and captured onto streptavidin biosensor tips (Pall ForteBio) as antigen. The antigen captured tips were dipped into 15 or 40 microgram (micro g)/mL of a first set of antibodies for 300 seconds. Then the tips were incubated with 15 or 40 micro g/mL of a second set of antibodies for 300 seconds. To eliminate an effect of antibody dissociation, the antibody concentration in the second set was the same with that of the first set. Result was analyzed by DATA Analysis HT software (Pall ForteBio, Version 10.0.1.7).\n(§2) In Table 3, “Abl” indicates antibody in the first set and “Ab2” indicates antibody in the second set."}, "[2]": {"target": "T1, Recombinant mouse DDR2 ECD-Fc (R&D …)", "assay": "Octet tandem binning on captured mouse DDR2 ECD-Fc; competitor Ab1 (bound first) DAB0048", "protocol": "as §1, §2"}, "[3]": {"target": "T1, Recombinant mouse DDR2 ECD-Fc (R&D …)", "assay": "Octet tandem binning on captured mouse DDR2 ECD-Fc; competitor Ab1 (bound first) DAB0060", "protocol": "as §1, §2"}, "[4]": {"target": "T1, Recombinant mouse DDR2 ECD-Fc (R&D …)", "assay": "Octet tandem binning on captured mouse DDR2 ECD-Fc; competitor Ab1 (bound first) DAB0065", "protocol": "as §1, §2"}, "[5]": {"target": "T1, Recombinant mouse DDR2 ECD-Fc (R&D …)", "assay": "Octet tandem binning on captured mouse DDR2 ECD-Fc; competitor Ab1 (bound first) DAB0069", "protocol": "as §1, §2"}, "[6]": {"target": "T1, Recombinant mouse DDR2 ECD-Fc (R&D …)", "assay": "Octet tandem binning on captured mouse DDR2 ECD-Fc; competitor Ab1 (bound first) DAB0093", "protocol": "as §1, §2"}, "[7]": {"target": "T1, Recombinant mouse DDR2 ECD-Fc (R&D …)", "assay": "Octet tandem binning on captured mouse DDR2 ECD-Fc; competitor Ab1 (bound first) DAB0094", "protocol": "as §1, §2"}},
  "data": [
    {"binder": "DAB0045 (antibody, V domains shown, Variable regions from immunized rabbits) VH: QSVEESGGRLVTPGTPLTLTCTVSGFSLSSYSMGWVRQAPGKGLEYIGVINTSDSAYYASWAKGRFTISRTSTTVDLKMTSLTTEDTATYFCARAIGYYGSGWGACYFNLWGQGTLVTVSS VL: AIKMTQTPSSVSAAVGGTVTVNCQASEDIKSYLAWYQQKPGQPPKLLIYSASTLASGVSSRFKGSGSGTQFTLTISDLECADAATYYCQSYYGTSTTGEYNAFGGGTKVEIK", "values": [
      {"measurement": "Octet response of Ab2", "setting": "[1]", "result": 0},
      {"measurement": "Octet response of Ab2", "setting": "[2]", "result": 1.2},
      {"measurement": "Octet response of Ab2", "setting": "[3]", "result": 1.09},
      {"measurement": "Octet response of Ab2", "setting": "[4]", "result": -0.0102},
      {"measurement": "Octet response of Ab2", "setting": "[5]", "result": -0.001},
      {"measurement": "Octet response of Ab2", "setting": "[6]", "result": 1.13},
      {"measurement": "Octet response of Ab2", "setting": "[7]", "result": 1.07}
    ]},
    {"binder": "DAB0094 (antibody, V domains shown, Variable regions from immunized rabbits) VH: QSVEESGGRLVTPGTPLTLTCTVSGFSLSSYSVAWVRQAPGKGLEWIGYISYSGSTYYASWVNGRFTISKTSTTVDLKMTSLTASDTATYFCARDPGYSRDLWGQGTLVTVSS VL: DVVMTQTPSSVSEPVGGTVTIKCQASQSIGSYLSWYQQKPGQPPKLLIYRASTLASGVSSRFKGSGSGTEFTLTINGLECADAAIYYCQSSYVGVSHGSFGGGTKVEIK", "values": [
      {"measurement": "Octet response of Ab2", "setting": "[1]", "result": 1.22},
      {"measurement": "Octet response of Ab2", "setting": "[2]", "result": 1.42},
      {"measurement": "Octet response of Ab2", "setting": "[3]", "result": 0.0985},
      {"measurement": "Octet response of Ab2", "setting": "[4]", "result": 1.37},
      {"measurement": "Octet response of Ab2", "setting": "[5]", "result": 1.3},
      {"measurement": "Octet response of Ab2", "setting": "[6]", "result": 1.48},
      {"measurement": "Octet response of Ab2", "setting": "[7]", "result": 0}
    ]},
    {"binder": "DAB0060 (antibody, V domains shown, Variable regions from immunized rabbits) VH: QSVEESGGRLVTPGTALTLTCTASGFSLSSYDMSWVRQAPGEGLEWIGTIFTEGSTSCASWVKGRFTISRTSTTVDLKITSPTTEDTATYFCVRGTTSNRLWGQGTLVTVSS VL: DVVMTQTPASVEAVVGATVTIRCQASESITNYLSWYQQKPGQPPKVLIYYASTLESGVPSRFKGSGSGTQFTLTISDLECADAATYYCQSNYFSSSYSYGNTFGGGTKVEIK", "values": [
      {"measurement": "Octet response of Ab2", "setting": "[1]", "result": 0.591},
      {"measurement": "Octet response of Ab2", "setting": "[2]", "result": 0.82},
      {"measurement": "Octet response of Ab2", "setting": "[3]", "result": 0},
      {"measurement": "Octet response of Ab2", "setting": "[4]", "result": 0.766},
      {"measurement": "Octet response of Ab2", "setting": "[5]", "result": 0.615},
      {"measurement": "Octet response of Ab2", "setting": "[6]", "result": 0.857},
      {"measurement": "Octet response of Ab2", "setting": "[7]", "result": -0.054}
    ]},
    {"binder": "DAB0048 (antibody, V domains shown, Variable regions from immunized rabbits) VH: QSVEESGGRLITPGTPLTLTCTASGFSLSIYYMIWVRQAPGKGLEWIGYIWSGSTTDYASWAKGRFTISKTSTTVDLKITSPTTEDTATYFCARVYAGYGYGSDLWGQGTLVTVSS VL: AAVLTQTPSPVSAAVGGTVSISCQSSQSVYNNNWLAWYQQKPGQPPKLLIYSASTLASGVPSRFKGSGSGTQFTLTISDVQCDDAATYYCAGGYSTNSDKNAFGGGTKVEIK", "values": [
      {"measurement": "Octet response of Ab2", "setting": "[1]", "result": 1.32},
      {"measurement": "Octet response of Ab2", "setting": "[2]", "result": 0},
      {"measurement": "Octet response of Ab2", "setting": "[3]", "result": 1.31},
      {"measurement": "Octet response of Ab2", "setting": "[4]", "result": 1.49},
      {"measurement": "Octet response of Ab2", "setting": "[5]", "result": 1.47},
      {"measurement": "Octet response of Ab2", "setting": "[6]", "result": -0.0129},
      {"measurement": "Octet response of Ab2", "setting": "[7]", "result": 1.5}
    ]},
    {"binder": "DAB0069 (antibody, V domains shown, Variable regions from immunized rabbits) VH: QSLEESGGRLVTPGTPLTLTCTASGFSLSNYYMQWVRQAPGKGLEWIGIVYPGSSAYYANWAKGRFTISKTSTTVDLKMTSLTTEDTATYFCAGSSNSVYSFNLWGQGTLVTVSS VL: AYDMTQTPSSVSAAVGGTVTIKCQASESIYRSLAWYQQKPGQPPKLLIYSASTLTSGVSSRFKGSGSGTEFTLTISDLECADAGTYYCQQGGSFSNIVNTFGGGTKVEIK", "values": [
      {"measurement": "Octet response of Ab2", "setting": "[1]", "result": 0.0335},
      {"measurement": "Octet response of Ab2", "setting": "[2]", "result": 1.57},
      {"measurement": "Octet response of Ab2", "setting": "[3]", "result": 1.35},
      {"measurement": "Octet response of Ab2", "setting": "[4]", "result": -0.0058},
      {"measurement": "Octet response of Ab2", "setting": "[5]", "result": 0},
      {"measurement": "Octet response of Ab2", "setting": "[6]", "result": 1.5}
    ]},
    {"binder": "DAB0065 (antibody, V domains shown, Variable regions from immunized rabbits) VH: QSVEESGGRLVTPGTPLTLTCTVSGFSLSTSAMSWVRQAPGKGLEWIGMITYGGSGSTWYASWANGRFTISKTSTTVTLKMTSPTTEDTASYFCARVYGTIGSNFYSIYSFNLWGQGTLVTVSS VL: AAVLTQTPSPVSAAVGGTVSISCQSSKSVYNSNYLSWYQQKPGQPPKLLIYYTSALASGVSSRFKGSGSGTRFTLTISDVQCDDAATYYCAGGYSSSSDNGFGGGTKVEIK", "values": [
      {"measurement": "Octet response of Ab2", "setting": "[1]", "result": 0.0398},
      {"measurement": "Octet response of Ab2", "setting": "[2]", "result": 1.65},
      {"measurement": "Octet response of Ab2", "setting": "[3]", "result": 1.51},
      {"measurement": "Octet response of Ab2", "setting": "[4]", "result": 0},
      {"measurement": "Octet response of Ab2", "setting": "[5]", "result": 0.0322},
      {"measurement": "Octet response of Ab2", "setting": "[6]", "result": 1.66},
      {"measurement": "Octet response of Ab2", "setting": "[7]", "result": 1.55}
    ]}
  ]
}
